This note sets out measurements from article PMC7667886, “Who with whom: functional coordination of E2 enzymes by RING E3 ligases during poly‐ubiquitylation” (The EMBO Journal, 2020).

The target of experiment [1] is T1, Ubc7 containing only the catalytic cysteine (C89only = C39A/C141S) (yeast, UniProt Q02159 1-165, C39A | C141S).
T1 construct: Ubc7, yeast ERAD E2 enzyme, single-cysteine variant C39A/C141S; also called Ubc7(C89only)
T1 sequence (looked up): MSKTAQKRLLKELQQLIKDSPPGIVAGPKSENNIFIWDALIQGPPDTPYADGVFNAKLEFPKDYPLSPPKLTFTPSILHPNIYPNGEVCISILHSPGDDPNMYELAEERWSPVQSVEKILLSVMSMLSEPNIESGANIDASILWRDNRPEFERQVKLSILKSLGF
Briefly: SEC; purified Ubc7 and U7BR mixed in a 1:2 ratio, complex purified on Superdex 75. The settings on record: both partners purified. In general terms: In gel filtration, larger molecules generally elute earlier.

The target in experiment [2] is T2, Ubc7(wt) (yeast, UniProt Q02159 1-165).
T2 construct: Ubc7, yeast ERAD E2 enzyme, wild type
T2 sequence (looked up): T1 sequence (looked up) with A39C, S141C
Described as above. The settings on record: both partners purified.

Substitutions are numbered along the chain they refer to.

B1: U7BR domain of Cue1 (aa 150–203) (domain or fragment, yeast, UniProt P38428 150-203, looked up)
chain: NLLDKFHVDLNEDMSNLSFKDLDIEERKRLLVWQARKNLETKLQSDKDLQSLLT
notes: Treated on Ni-NTA with thrombin and GST-hSENP1, then washed and eluted with imidazole; source: E. coli BL21/DE3, purified (Ni-NTA, incubation with thrombin and GST-hSENP1, imidazole elution, Superdex 75)
As for B1, the binding result in experiment [1] and in experiment [2] was “binds” each time.
